In publication doi:10.1101/2023.02.23.529646 (bioRxiv, 2023):

Legend:
[1] = biological target: T1, ACAD9WT (res. 38-621) (human, UniProt Q9H845 38-621); experiment: ITC
T1 sequence: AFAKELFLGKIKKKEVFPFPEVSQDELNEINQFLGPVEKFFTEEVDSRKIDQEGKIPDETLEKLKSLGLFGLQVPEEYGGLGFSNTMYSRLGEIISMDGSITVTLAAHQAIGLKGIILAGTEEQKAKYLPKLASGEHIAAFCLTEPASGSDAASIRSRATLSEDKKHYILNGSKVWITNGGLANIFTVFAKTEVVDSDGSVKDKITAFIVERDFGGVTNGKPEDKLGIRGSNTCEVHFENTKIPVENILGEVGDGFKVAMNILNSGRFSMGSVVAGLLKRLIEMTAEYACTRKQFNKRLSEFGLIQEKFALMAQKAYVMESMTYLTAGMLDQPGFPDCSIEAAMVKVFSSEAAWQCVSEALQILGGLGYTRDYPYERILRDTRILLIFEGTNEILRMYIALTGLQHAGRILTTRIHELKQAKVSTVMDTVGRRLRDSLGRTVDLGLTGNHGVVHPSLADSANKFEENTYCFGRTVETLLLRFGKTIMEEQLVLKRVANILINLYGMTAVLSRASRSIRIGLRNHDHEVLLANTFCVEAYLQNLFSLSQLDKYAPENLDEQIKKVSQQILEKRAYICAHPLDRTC

[2] = biological target: T2, ACAD9_(S191A) (human, UniProt Q9H845 38-621, S191A); experiment: ITC
T2 sequence: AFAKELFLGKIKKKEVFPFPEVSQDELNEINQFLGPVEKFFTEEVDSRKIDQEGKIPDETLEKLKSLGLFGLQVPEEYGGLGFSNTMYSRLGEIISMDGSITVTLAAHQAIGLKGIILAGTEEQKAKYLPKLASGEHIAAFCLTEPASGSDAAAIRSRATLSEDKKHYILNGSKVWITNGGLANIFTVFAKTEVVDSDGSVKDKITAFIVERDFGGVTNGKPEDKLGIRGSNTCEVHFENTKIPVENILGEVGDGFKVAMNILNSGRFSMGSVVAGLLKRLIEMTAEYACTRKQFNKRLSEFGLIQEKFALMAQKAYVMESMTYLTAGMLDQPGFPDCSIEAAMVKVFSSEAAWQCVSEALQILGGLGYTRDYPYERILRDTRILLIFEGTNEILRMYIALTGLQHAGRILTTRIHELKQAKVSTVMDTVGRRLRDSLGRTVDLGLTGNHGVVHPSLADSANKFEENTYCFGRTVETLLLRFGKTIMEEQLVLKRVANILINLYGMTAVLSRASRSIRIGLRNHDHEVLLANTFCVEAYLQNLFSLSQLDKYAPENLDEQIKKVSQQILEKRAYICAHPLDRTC

[3] = biological target: T3, ACAD9_(A184S/SR194TS) (human, UniProt Q9H845 38-621, A184S | SR194TS); experiment: mass photometry
T3 sequence: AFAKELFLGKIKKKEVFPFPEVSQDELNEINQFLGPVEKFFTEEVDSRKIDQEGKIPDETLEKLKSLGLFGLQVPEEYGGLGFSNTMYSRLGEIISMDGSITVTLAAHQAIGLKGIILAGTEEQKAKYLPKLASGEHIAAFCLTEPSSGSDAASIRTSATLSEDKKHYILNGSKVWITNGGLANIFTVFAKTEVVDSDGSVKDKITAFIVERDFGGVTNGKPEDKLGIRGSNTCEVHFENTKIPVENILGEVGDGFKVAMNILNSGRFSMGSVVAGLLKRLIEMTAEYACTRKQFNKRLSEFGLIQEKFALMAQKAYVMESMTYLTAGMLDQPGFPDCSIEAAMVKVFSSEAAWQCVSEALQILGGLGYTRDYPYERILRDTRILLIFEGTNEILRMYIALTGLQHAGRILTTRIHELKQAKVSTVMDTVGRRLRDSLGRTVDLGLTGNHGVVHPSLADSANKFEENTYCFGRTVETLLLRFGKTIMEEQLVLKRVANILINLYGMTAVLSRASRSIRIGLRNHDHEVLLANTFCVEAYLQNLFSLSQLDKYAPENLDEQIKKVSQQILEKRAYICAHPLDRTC

[4] = biological target: T1, ACAD9WT (res. 38-621); experiment: cryo-EM structure

B1: ECSIT_(CTER) (residues 221-431) (domain or fragment)
chain: QDPVELAMFGLRHMEPDLSARVTIYQVPLPKDSTGAADPPQPHIVGIQSPDQQAALARHNPARPVFVEGPFSLWLRNKCVYYHILRADLLPPEEREVEETPEEWNLYYPMQLDLEYVRSGWDNYEFDINEVEEGPVFAMCMAGAHDQATMAKWIQGLQETNPTLAQIPVVFRLAGSTRELQTSSAGLEEPPLPEDHQEEDDNLQRQQQGQS
With B1 the Kd [1] was 1450 nM, the Kd [2] was 3.93 µM and the binding result [3] was “binds”. For the same binder, the “stoichiometry N” value [4] was 1 ECSIT_(CTER) per ACAD9 protomer.
